Data taken from patent US20250302939A1, “VACCINE FOR HUMAN T-LY[…]-1” (The United States of America, as represented by the …, priority 2022, published 2025).

Tested on: MHC class-I
Assay: Surface expression of MHC class I in transduced Jurkat T-cells (FACS)
Format: cell-based, human
Conditions: HIV nef as positive control
Protocol: FIGS. 5A-5E. (FIG. 5A) Amino acids alignment between Rex-orfI protein (p16) (SEQ ID NO: 10) and p12/p8 (SEQ ID NO: 11). Amino acids changes are underlined. Jurkat T-cells (FIG. 5B) or THP-1 cells (FIG. 5C) were transduced with lentiviral GFP vector expressing p12/p8 HA tag, or p16-HA tag or only GFP, as a control. Forty-eight hours post-transfection proteins were extracted and immunoblot with anti HA antibody was performed. Jurkat T-cells were transduced with GFP-lentiviruses expressing p16, Nef, or only GFP as a control. Cells were stained with HLA-ABC antibody (PE/Cy5 anti-human HLA-A,B,C clone w6/32 BioLegend) and analyzed by FACS. (FIG. 5D) Protein expression was verified by Immunoblot using an anti HA antibody and B-actin as control (cell signaling and appropriate secondary antibodies purchased from Santa Cruz Biotechnology) (FIG. 5E).
The cDNA synthesized from the rex-orf-I mRNA (FIG. 5A) encodes upon transfection a single protein band (p16) in Jurkat T-cells (FIG. 5B and FIG. 5C). In the human myeloid cell line THP-1 further processing of p16 results in two lower protein bands (FIGS. 5D and 5E).

B1: p16: HTLV-1C protein encoded by the rex-orf-I mRNA (SEQ ID NO: 10) (protein, listed as Homo sapiens)
chain: MPKTRRGPRRSQRKRPPTPWQPPPFSLQGLCLALQLSSITINPQLRHSFSSSTTLPCLLLPSSLFCLSPLALAALLFLQFSPGAVGGLLLRPPPAPSLLLSLPFQKLSNLFLLLFFPLSFSLSLLLGPSPPITMRFPARWRFLFRRAPSQPA
- effect on surface expression of MHC class I: does not affect surface expression of MHC-class I
